Measurements reported in patent US20160207995A1 (Genentech, published 2016).
Numbering of substitutions follows the chain as printed. Numbers in names are those of the source.

How the values were obtained:
[1] = molecular target: T1, human interleukin-4 (IL-4) (human, UniProt P05112 25-153, biotinylated in the competition ELISAs); assay: SPR
T1 construct: Commercial human IL-4 (R&D Systems); also called human IL-4; biotinylated IL-4
T1 sequence: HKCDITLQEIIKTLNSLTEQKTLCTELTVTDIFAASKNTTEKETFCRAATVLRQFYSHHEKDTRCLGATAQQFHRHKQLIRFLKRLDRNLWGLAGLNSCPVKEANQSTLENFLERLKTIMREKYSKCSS

[2] = molecular target: T1, human interleukin-4 (IL-4); assay: cell-based or functional assay
human IL-13 [3] = molecular target: T2, human IL-13 (human, UniProt P35225 33-146, biotinylated in the IL-13Rα2 competition ELISA); assay: SPR Biacore 3000; antibody captured on anti-human Fc, cytokine 0-50 nM injected, 25 °C, 1:1 Langmuir model
T2 construct: Made at Genentech; also called biotinylated human IL-13; immobilized IL-13

[4] = molecular target: T1, human interleukin-4 (IL-4); assay: as above
human IL-13 [5] = molecular target: T2, human IL-13; assay: cell-based or functional assay
[6] = molecular target: T1, human interleukin-4 (IL-4); assay: cell-based or functional assay; remark: listed apart in the source
[7] = molecular target: T1, human interleukin-4 (IL-4); assay: competition ELISA: antibody premixed with biotinylated human IL-4 (5.8 ng/ml), then added to plate-coated human IL-4R; streptavidin-HRP, OD 450 nm
human IL-13 [8] = molecular target: T2, human IL-13; assay: competition ELISA: antibody premixed with biotinylated human IL-13 (0.056 µg/ml), then added to plate-coated human IL-13Rα2-Fc; streptavidin-HRP, OD 450 nm
human IL-13 R130Q = molecular target: T3, human IL-13 R130Q (human, UniProt P35225 25-146, biotinylated in the IL-13Rα1 competition ELISA); assay: SPR Biacore 3000; antibody captured on anti-human Fc, cytokine 0-50 nM injected, 25 °C, 1:1 Langmuir model
T3 construct: also called biotinylated IL-13 R130Q

cynomolgus monkey IL-13 = molecular target: T4, cynomolgus monkey IL-13 (cynomolgus monkey, UniProt Q5I6E4 19-132 (Macaca thibetana entry), limits assumed); assay: as above
T4 construct: also called cyno IL-13
T4 chain: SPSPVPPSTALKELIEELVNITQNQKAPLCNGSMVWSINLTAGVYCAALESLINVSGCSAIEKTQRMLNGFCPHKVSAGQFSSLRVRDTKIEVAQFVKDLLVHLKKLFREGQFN

cynomolgus monkey IL-4 = molecular target: T5, cynomolgus monkey IL-4 (cynomolgus monkey, UniProt P79339 25-153); assay: as above
T5 construct: Made at Genentech; also called cyno IL-4
T5 sequence: T1 sequence with E26K, V29I, F33L

[9] = molecular target: T1, human interleukin-4 (IL-4); assay: SPR (BIAcore A100): IgG captured by anti-human Fcγ antibody, recombinant IL-4 injected, 1:1 Langmuir fit
[10] = molecular target: T1, human interleukin-4 (IL-4); assay: SPR Biacore
[11] = molecular target: T1, human interleukin-4 (IL-4); assay: SPR BIAcore A100; IgG captured on anti-human Fcγ, recombinant IL-4 injected, 1:1 model

B1: mu19C11 (clone 19C11, murine anti-human IL-4 monoclonal antibody) (antibody, V domains shown)
VH: QIQLVQSGPELKKPGETVKISCKASGYTFTDYSMHWMKQAPGKGLKWMVWINTETGEPTYADDFKGRFAFSLETSANTAYLKINNLKNEDTATYFCARGGIFYGMDYWGQGTSVTVSS
VL: SIVMTQTPKFLLISAGDRVTITCKASQSVINDAAWYQQKPGQSPRLLIYYTSHRYTGVPDRFTGSGYGTDFTFTISTVQAEDLAVYFCQQDYTSPWTFGGGTKLEIKR
notes: Mouse hybridoma IgG (BALB/c); Tested as hybridoma supernatant IgG or purified IgG
B1 was tested, and the Kd [1] was ≤ 0.01 nM and the “IC50 for blocking IL-4-induced proliferation of TF-1 cells” value [2] was 0.014 µg/mL.

B2: anti-IL-4/IL-13 IgG1 bispecific antibody (knobs-into-holes) (bispecific antibody)
heavy 1: not shown
light 1: DIQMTQSPSSLSASVGDRVTITCKASQSVINDAAWYQQKPGKAPKLLIYYTSHRYTGVPSRFSGSGSGTDFTLTISSLQPEDFATYYCQQDYTSPWTFGQGTKVEIKRTVAAPSVFIFPPSDEQLKSGTASVVCLLNNFYPREAKVQWKVDNALQSGNSQESVTEQDSKDSTYSLSSTLTLSKADYEKHKVYACEVTHQGLSSPVTKSFNRGEC
heavy 2: not shown
light 2: DIVLTQSPDSLSVSLGERATINCRASKSVDSYGNSFMHWYQQKPGQPPKLLIYLASNLESGVPDRFSGSGSGTDFTLTISSLQAEDVAVYYCQQNNEDPRTFGGGTKVEIKRTVAAPSVFIFPPSDEQLKSGTASVVCLLNNFYPREAKVQWKVDNALQSGNSQESVTEQDSKDSTYSLSSTLTLSKADYEKHKVYACEVTHQGLSSPVTKSFNRGEC
notes: Half antibodies made in E. coli (not glycosylated) and assembled by redox chemistry; Anti-IL-4 arm is the hole, anti-IL-13 arm the knob; also called anti-IL-4/IL-13 IgG1-isotype
In the case of B2, the Kd (human IL-13 [3]) is reported as 0.023 nM, the koff (human IL-13 [3]) is reported as 1.7e-05 s⁻¹ and the kon (human IL-13 [3]) is reported as 714000 M⁻¹ s⁻¹. For the same binder, the Kd [4] was 0.068 nM, the koff [4] was 8.48e-05 s⁻¹ and the kon [4] was 1.34e+06 M⁻¹ s⁻¹. For the same binder, the “IC50 of TF-1 proliferation inhibition assay (IL-13)” value (human IL-13 [5]) was 0.03 µg/mL and the “IC50 of TF-1 proliferation inhibition assay (IL-4)” value [6] was 0.06 µg/mL.

B3: anti-IL-4/IL-13 IgG4 bispecific antibody (knobs-into-holes, S228P, wild-type R409) (bispecific antibody)
heavy 1: EVQLVESGGGLVQPGGSLRLSCAASGYTFTDYSMHWVRQAPGKGLEWVVWINTETGEPTYADSVKGRFTISLDNSKNTAYLQMNSLRAEDTAVYYCARGGIFYGMDYWGQGTLVTVSSASTKGPSVFPLAPCSRSTSESTAALGCLVKDYFPEPVTVSWNSGALTSGVHTFPAVLQSSGLYSLSSVVTVPSSSLGTKTYTCNVDHKPSNTKVDKRVESKYGPPCPPCPAPEFLGGPSVFLFPPKPKDTLMISRTPEVTCVVVDVSQEDPEVQFNWYVDGVEVHNAKTKPREEQFNSTYRVVSVLTVLHQDWLNGKEYKCKVSNKGLPSSIEKTISKAKGQPREPQVYTLPPSQEEMTKNQVSLSCAVKGFYPSDIAVEWESNGQPENNYKTTPPVLDSDGSFFLVSRLTVDKSRWQEGNVFSCSVMHEALHNHYTQKSLSLSLGK
light 1: B2 light 1
heavy 2: not shown
light 2: B2 light 2
notes: Half antibodies made in E. coli (not glycosylated) and assembled by redox chemistry; also called anti-IL-4/IL-13 bispecific antibody; anti-IL-4/IL-13 IgG4-isotype
With B3 the “IC50 (read off the curve)” value [7] was ~0.2 µg/mL, the “IC50 (read off the curve)” value (human IL-13 [8]) was ~0.2 µg/mL and the Kd (human IL-13 R130Q) was 0.142 nM. For the same binder, the koff (human IL-13 R130Q) was 2.62e-05 s⁻¹, the kon (human IL-13 R130Q) was 184000 M⁻¹ s⁻¹ and the Kd (human IL-13 [3]) was 0.056 nM. The koff (human IL-13 [3]) was 3.01e-05 s⁻¹, the kon (human IL-13 [3]) was 537000 M⁻¹ s⁻¹ and the Kd (cynomolgus monkey IL-13) was 0.048 nM. For the same binder, the koff (cynomolgus monkey IL-13) was 2.83e-05 s⁻¹, the kon (cynomolgus monkey IL-13) was 608000 M⁻¹ s⁻¹ and the Kd [4] was 0.046 nM. It also gave a koff [4] of 0.000133 s⁻¹, a kon [4] of 2.87e+06 M⁻¹ s⁻¹ and a Kd (cynomolgus monkey IL-4) of 0.076 nM. The koff (cynomolgus monkey IL-4) was 0.000151 s⁻¹, the kon (cynomolgus monkey IL-4) was 2.02e+06 M⁻¹ s⁻¹ and the “IC50 of TF-1 proliferation inhibition assay (IL-13)” value (human IL-13 [5]) was 0.03 µg/mL. For the same binder, the “IC50 of TF-1 proliferation inhibition assay (IL-4)” value [6] was 0.05 µg/mL.

B4: HuVHI / HuKI (antibody, V domains shown)
VH: QVQLVQSGAEVKKPGASVKVSCKASGYTFTDYSMHWVRQAPGQGLEWMVWINTETGEPTYADDFKGRVTITRDTSTSTAYLELSSLRSEDTAVYYCARGGIFYGMDYWGQGTLVTVSS
VL: DIQMTQSPSSLSASVGDRVTITCKASQSVINDAAWYQQKPGKAPKLLIYYTSHRYTGVPSRFSGSGSGTDFTLTISSLQPEDFATYYCQQDYTSPWTFGQGTKVEIKR
notes: also called humanized 19C11-VH1 graft/κ1 graft
B4 was tested, and the Kd [9] was 0.024 nM.

B5: HuVHIII (FLA) / HuKI (antibody, V domains shown)
VH: EVQLVESGGGLVQPGGSLRLSCAASGYTFTDYSMHWVRQAPGKGLEWVVWINTETGEPTYADDFKGRFTFSLDNSKNTAYLQMNSLRAEDTAVYYCARGGIFYGMDYWGQGTLVTVSS
VL: B4 VL
notes: also called humanized 19C11-VH3.FLA/κ1 graft
B5 was tested, and the Kd [9] was 0.14 nM.

B6: HuVHIII / HuKI (antibody, V domains shown)
VH: B5 VH with F70I, L72R, A79L
VL: B4 VL
notes: also called humanized 19C11-VH3 graft/κ1 graft
Work on B6 yielded a Kd [9] of 0.084 nM.

B7: humanized antibody 19C11-VH3.LA.SV/κ1 graft (anti-IL-4) (antibody, V domains shown)
VH: B5 VH with D63S, F64V, F70I
VL: B4 VL
notes: Parental (monospecific) humanized anti-IL-4 antibody; also called parental anti-IL-4 antibody; hu19C11
B7: binds [10].

B8: HuVHIII / HuKIII (antibody, V domains shown)
VH: B5 VH with F70I, L72R, A79L
VL: EIVLTQSPATLSLSPGERATLSCKASQSVINDAAWYQQKPGQAPRLLIYYTSHRYTGIPARFSGSGSGTDFTLTISSLEPEDFAVYYCQQDYTSPWTFGQGTKVEIKR
notes: also called humanized 19C11-VH3 graft/κ3 graft
Work on B8 yielded a Kd [9] of 0.026 nM.

B9: humanized 19C11-VH3.FLA/κ3 graft (antibody, V domains shown)
VH: B5 VH
VL: B8 VL
notes: Human IgG expressed in 293 cells; also called 19C11-VH3.FLA with 19C11-κ3 graft
Binder B9 has a Kd [11] of 0.011 nM.

B10: 19C11 Chimera (antibody, V domains shown)
VH: B1 VH
VL: B1 VL
notes: also called chimeric 19C11 (mouse variable regions with human IgG constant regions)
With B10 the Kd [9] was < 0.01 nM.

B11: humanized 19C11-VH1.FFL/κ3 graft (antibody, V domains shown)
VH: B4 VH with V68F, I70F, R72L
VL: B8 VL
notes: Human IgG expressed in 293 cells; also called 19C11-VH1.FFL with 19C11-κ3 graft
In the case of B11, the Kd [11] is reported as 0.011 nM.
